Assay results reported in the supplement of paper PMC10065799, “High-throughput profiling of sequence recognition by tyrosine kinases and SH2 domains using bacterial peptide display” (eLife, 2023).

Columns and labels:
c-Src SH2 = experiment: SH2 binding enrichment of the phosphorylated peptide, bacterial display (enrichment ratio); higher = better substrate or ligand; peptides without Tyr show the background
Grb2 SH2 = Grb2 SH2 (UniProt P62993); experiment: as above
SHP2-C SH2 = experiment: as above
EPHB1 = EPHB1 (UniProt P54762); experiment: phosphorylation enrichment, bacterial display (enrichment ratio); higher = better substrate or ligand; peptides without Tyr show the background
Jak2 = Jak2 (UniProt O60674); experiment: as above
Jak2, sequence (O60674 whole entry, looked up): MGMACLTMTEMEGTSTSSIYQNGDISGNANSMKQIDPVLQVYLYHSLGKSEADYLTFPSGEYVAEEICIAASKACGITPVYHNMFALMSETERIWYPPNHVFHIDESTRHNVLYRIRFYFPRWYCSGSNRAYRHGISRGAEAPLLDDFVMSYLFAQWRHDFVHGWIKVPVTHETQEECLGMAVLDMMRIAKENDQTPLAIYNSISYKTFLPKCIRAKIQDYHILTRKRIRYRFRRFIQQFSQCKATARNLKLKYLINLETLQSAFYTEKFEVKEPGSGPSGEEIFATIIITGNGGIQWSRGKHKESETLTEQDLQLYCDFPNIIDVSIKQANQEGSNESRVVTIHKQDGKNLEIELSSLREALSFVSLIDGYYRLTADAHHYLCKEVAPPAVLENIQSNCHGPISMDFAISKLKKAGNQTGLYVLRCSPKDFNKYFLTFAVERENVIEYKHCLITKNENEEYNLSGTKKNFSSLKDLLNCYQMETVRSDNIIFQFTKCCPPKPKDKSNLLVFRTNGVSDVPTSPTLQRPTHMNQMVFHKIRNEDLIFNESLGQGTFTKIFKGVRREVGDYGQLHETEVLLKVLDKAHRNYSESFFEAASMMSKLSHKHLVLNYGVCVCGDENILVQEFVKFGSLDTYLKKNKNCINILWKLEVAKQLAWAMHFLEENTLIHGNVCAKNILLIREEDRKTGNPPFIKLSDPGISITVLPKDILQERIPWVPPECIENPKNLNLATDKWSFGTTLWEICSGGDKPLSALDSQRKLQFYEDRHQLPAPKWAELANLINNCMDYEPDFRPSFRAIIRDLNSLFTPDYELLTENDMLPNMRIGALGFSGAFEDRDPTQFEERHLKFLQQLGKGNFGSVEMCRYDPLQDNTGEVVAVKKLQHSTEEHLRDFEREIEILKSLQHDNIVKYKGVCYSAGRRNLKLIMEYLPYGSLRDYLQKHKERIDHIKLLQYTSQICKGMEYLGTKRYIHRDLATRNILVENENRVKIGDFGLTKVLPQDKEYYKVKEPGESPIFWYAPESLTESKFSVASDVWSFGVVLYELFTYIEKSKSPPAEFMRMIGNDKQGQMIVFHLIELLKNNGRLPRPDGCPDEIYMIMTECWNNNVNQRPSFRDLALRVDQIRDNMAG

EPHB2 = EPHB2 (UniProt P29323); experiment: as above
FGFR3 = FGFR3 (UniProt P22607); experiment: as above
FGFR3, sequence (P22607 whole entry, looked up): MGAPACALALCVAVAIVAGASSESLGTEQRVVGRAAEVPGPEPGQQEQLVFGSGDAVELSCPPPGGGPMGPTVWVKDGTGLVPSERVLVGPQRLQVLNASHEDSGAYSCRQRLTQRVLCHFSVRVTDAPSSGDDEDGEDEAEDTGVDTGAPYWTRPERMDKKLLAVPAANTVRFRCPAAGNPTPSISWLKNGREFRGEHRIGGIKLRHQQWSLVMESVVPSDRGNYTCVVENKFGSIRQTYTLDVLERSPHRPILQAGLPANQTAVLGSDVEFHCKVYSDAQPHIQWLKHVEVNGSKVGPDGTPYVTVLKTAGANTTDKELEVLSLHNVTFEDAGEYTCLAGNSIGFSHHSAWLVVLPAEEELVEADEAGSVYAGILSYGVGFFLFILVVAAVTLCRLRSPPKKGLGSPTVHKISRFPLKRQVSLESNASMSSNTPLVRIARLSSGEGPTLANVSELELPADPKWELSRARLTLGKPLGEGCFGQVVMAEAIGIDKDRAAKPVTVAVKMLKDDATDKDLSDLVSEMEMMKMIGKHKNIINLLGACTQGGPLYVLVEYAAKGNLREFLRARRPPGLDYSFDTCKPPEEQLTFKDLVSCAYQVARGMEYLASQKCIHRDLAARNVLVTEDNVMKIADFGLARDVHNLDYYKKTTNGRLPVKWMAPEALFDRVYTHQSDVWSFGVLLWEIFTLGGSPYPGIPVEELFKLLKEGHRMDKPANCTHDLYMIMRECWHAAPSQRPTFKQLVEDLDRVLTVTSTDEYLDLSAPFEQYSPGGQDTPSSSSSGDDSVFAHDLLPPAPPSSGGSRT

c-Src = experiment: as above
Fer (mouse) = experiment: as above
Fyn = Fyn (UniProt P06241); experiment: as above
Fyn, sequence (P06241 whole entry, looked up): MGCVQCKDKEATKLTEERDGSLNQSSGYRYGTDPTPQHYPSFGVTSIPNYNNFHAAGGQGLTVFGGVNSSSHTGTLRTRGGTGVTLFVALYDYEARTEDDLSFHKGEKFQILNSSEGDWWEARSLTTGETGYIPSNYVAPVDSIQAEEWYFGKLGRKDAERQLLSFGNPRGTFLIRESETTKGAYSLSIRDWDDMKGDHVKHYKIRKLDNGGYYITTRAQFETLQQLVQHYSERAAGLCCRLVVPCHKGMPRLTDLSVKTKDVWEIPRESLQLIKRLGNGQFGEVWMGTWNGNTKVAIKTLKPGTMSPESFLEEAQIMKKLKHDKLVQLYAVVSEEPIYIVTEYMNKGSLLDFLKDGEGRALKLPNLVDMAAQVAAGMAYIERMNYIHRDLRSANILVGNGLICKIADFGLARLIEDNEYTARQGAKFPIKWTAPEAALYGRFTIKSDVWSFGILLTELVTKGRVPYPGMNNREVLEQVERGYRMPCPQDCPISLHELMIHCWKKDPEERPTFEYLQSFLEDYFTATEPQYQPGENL

Hck = Hck (UniProt P08631); experiment: as above
Hck, sequence (P08631 whole entry, looked up): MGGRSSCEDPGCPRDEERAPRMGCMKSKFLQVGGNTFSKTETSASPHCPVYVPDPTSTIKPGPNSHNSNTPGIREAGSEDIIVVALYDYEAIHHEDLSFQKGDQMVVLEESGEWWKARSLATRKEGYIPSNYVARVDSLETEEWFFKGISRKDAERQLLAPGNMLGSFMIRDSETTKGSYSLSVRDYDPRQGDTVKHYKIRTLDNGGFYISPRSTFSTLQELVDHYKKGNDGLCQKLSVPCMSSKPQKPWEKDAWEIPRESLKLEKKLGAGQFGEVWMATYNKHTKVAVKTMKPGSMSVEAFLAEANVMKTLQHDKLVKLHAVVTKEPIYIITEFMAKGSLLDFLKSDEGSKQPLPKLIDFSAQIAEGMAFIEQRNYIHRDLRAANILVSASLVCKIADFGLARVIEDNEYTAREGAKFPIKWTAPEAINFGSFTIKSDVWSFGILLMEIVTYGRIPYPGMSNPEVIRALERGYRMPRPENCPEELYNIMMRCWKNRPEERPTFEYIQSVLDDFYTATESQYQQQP

AncSZ = experiment: as above
FGFR1 = FGFR1 (UniProt P11362); experiment: as above
c-Abl (mouse) = experiment: as above
MERTK = MERTK (UniProt Q12866); experiment: as above
MERTK, sequence (Q12866 whole entry, looked up): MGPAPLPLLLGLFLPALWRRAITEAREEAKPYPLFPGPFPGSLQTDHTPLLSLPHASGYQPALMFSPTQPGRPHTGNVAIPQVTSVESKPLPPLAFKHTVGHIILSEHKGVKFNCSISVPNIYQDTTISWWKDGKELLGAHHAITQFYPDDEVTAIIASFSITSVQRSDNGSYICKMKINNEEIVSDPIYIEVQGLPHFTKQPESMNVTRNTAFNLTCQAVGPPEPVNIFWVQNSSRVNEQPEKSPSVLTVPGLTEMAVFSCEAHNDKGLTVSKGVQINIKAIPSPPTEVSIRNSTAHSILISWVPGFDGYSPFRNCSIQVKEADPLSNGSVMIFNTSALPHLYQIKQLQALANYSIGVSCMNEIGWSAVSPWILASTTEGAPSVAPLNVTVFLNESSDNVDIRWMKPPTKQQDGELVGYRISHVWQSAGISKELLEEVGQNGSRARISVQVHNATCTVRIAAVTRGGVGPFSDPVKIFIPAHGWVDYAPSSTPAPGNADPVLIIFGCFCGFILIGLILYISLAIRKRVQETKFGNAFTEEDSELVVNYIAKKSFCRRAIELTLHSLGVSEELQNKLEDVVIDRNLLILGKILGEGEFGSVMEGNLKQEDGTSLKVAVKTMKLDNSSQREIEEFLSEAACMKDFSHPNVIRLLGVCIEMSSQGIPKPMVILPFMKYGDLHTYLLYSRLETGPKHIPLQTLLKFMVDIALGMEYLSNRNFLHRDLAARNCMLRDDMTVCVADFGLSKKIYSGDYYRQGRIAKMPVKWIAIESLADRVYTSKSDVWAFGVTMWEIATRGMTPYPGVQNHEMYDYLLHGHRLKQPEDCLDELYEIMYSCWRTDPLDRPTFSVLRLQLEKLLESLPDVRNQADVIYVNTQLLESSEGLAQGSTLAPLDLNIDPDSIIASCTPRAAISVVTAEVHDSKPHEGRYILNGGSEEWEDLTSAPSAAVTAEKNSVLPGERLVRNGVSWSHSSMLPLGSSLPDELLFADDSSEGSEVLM

Fes = Fes (UniProt P07332); experiment: as above
Fes, sequence (P07332 whole entry, looked up, the tested form may be a part): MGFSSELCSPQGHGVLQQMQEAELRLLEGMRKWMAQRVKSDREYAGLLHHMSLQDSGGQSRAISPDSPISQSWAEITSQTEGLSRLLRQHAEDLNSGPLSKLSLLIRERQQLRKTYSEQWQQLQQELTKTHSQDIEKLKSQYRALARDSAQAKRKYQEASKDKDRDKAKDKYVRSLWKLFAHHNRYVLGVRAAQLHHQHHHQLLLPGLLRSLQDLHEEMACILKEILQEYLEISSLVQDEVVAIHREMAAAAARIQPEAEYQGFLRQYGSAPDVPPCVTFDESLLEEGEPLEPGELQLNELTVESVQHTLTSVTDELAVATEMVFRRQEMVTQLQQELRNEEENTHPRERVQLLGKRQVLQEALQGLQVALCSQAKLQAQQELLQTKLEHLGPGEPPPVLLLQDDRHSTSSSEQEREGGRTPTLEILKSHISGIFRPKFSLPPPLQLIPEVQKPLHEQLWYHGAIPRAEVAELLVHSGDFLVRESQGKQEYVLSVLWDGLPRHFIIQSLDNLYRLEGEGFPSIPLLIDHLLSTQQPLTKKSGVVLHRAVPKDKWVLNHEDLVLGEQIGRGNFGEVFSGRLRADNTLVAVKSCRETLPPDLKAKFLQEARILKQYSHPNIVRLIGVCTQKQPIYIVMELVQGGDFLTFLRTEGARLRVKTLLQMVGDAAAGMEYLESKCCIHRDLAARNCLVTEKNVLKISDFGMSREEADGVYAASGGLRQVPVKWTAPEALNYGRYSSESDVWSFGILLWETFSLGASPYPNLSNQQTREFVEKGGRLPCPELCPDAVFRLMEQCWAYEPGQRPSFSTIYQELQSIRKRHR
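Throughout, for SH2 binding enrichment of the phosphorylated peptide, bacterial display: peptide library displayed on the E. coli surface as eCPX fusions, selected cells deep-sequenced, score is each peptide's frequency after selection divided by its frequency in the input.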
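Throughout, for phosphorylation enrichment, bacterial display: 11-residue human phosphosite peptides and single-mutation variants displayed on the E. coli surface, counted by deep sequencing, each peptide's frequency after selection divided by its frequency in the unselected input library; frequency after pTyr selection over input frequency; kinase dosed for 20-30% of maximal phosphorylation in three min.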

Grb2 SH2, sequence (P62993 whole entry, looked up): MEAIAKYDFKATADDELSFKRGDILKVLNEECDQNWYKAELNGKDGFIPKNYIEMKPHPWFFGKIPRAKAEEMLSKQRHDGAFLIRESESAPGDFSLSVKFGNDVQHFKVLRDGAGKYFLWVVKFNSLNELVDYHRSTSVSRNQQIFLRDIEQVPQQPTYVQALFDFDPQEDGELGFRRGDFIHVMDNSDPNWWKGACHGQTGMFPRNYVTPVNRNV

Sequence	SH2 binding enrichment (c-Src SH2)	SH2 binding enrichment (Grb2 SH2)	SH2 binding enrichment (SHP2-C SH2)	phosphorylation enrichment (EPHB1)	phosphorylation enrichment (Jak2)	phosphorylation enrichment (EPHB2)	phosphorylation enrichment (FGFR3)	phosphorylation enrichment (c-Src)	phosphorylation enrichment (Fer (mouse))	phosphorylation enrichment (Fyn)	phosphorylation enrichment (Hck)	phosphorylation enrichment (AncSZ)	phosphorylation enrichment (FGFR1)	phosphorylation enrichment (c-Abl (mouse))	phosphorylation enrichment (MERTK)	phosphorylation enrichment (Fes)
TRVMEYISCLD [CLTCL1_Y1043_R1046C]	0.545	0.626	0.478	0.661	0.995	0.749	0.843	0.457	0.592	0.521	0.647	1.18	0.599	1.08	0.507	1.18
GGCQEYTGAPF [NAXD_Y85_YF]	0.508	0.817	0.576	0.541	0.817	0.618	0.8	0.528	0.587	0.464	0.506	1.17	0.526	0.636	0.456	1.14
QFNIQYSSSAA [ERBB2IP_Y981_YF]	0.557	0.705	0.623	0.51	0.935	0.542	0.661	0.633	0.458	0.485	0.673	1.11	0.832	1.01	0.962	1.31
FASALYGQRRS [FGF11_Y162_R163G_YF]	0.511	0.659	0.457	0.343	0.616	0.415	0.442	0.641	0.505	0.444	0.903	0.724	0.364	0.47	0.516	0.682
HNLFSYPTKHE [MYO3A_Y1396_YF]	0.597	0.576	0.523	0.65	1.01	0.624	0.738	0.531	0.624	0.631	0.874	0.773	0.74	0.65	0.868	0.989
HESEIYGKVCY [CSRP3_Y57_C58G]	0.422	0.77	0.344	0.828	1.31	0.968	0.808	6.37	8.63	8.66	5.92	1.36	0.612	2.81	1.08	1.32
EPAVLYNLKER [MYH7_Y103_D107E]	0.486	0.773	0.653	0.354	0.74	0.547	0.524	0.694	0.332	0.511	0.72	0.804	0.506	0.687	0.388	0.854
YFVVEYRDQKP [MUC17_Y4332]	3.98	1.17	5.95	1.23	3.02	0.909	12.1	0.728	0.75	0.786	0.589	2.1	13.8	0.788	4.97	1.66
WNRDKYAATTT [TRIM39_Y439_G436R]	0.498	0.772	0.798	0.448	0.65	0.401	0.34	0.411	0.37	0.358	0.375	0.734	0.439	0.542	0.471	0.59
KFVVVYFRETD [IL17RB_Y447_I451T_YF]	1.33	2.19	1.55	0.637	1.11	0.597	0.734	0.377	0.484	0.463	0.57	1.36	0.512	0.734	0.417	1.23
AIMSFYAALIN [RYR1_Y2426_D2431N]	0.785	0.996	1.18	1.14	1.06	0.991	0.772	0.497	0.672	0.508	0.764	1.13	0.575	1	1.09	1.3
QGIFGYHHHMQ [UFSP2_Y287_Y290H_YF]	0.945	1.16	0.936	0.639	1.07	0.781	0.792	0.498	0.779	0.395	0.664	0.941	0.892	0.652	0.521	1.04
WCKPLYFSCAV [MMS22L_Y28_P27L]	1.32	1.5	1.22	0.737	1.57	0.598	1.1	1.18	0.541	0.533	0.607	1.26	1.14	0.821	0.907	1.21
AQQPIYVRVEG [NLRP7_Y318]	0.609	0.84	0.682	5.88	0.965	4.96	0.787	3.6	0.707	2.18	1.74	0.967	1.12	1.54	2.46	0.963
KGKLIYLLRDS [NXPE1_Y350_G353R]	1.75	2.45	3.18	0.455	0.692	0.447	0.599	0.516	0.492	0.49	0.599	0.719	0.428	0.666	0.443	0.964
GNKENYGLPQP [BUB1_Y538]	0.375	0.575	0.677	0.489	0.532	0.533	0.609	0.392	0.353	0.321	0.342	0.634	0.372	1.26	0.341	0.69
EEETDYTPVWC [UROD_Y30_G25E]	0.638	0.997	0.791	0.689	1.16	0.589	0.876	0.503	0.771	0.484	0.578	1.58	0.554	0.937	0.504	1.25

Sequence	SH2 binding enrichment (c-Src SH2)	SH2 binding enrichment (Grb2 SH2)	SH2 binding enrichment (SHP2-C SH2)	phosphorylation enrichment (EPHB1)	phosphorylation enrichment (Jak2)	phosphorylation enrichment (EPHB2)	phosphorylation enrichment (FGFR3)	phosphorylation enrichment (c-Src)	phosphorylation enrichment (Fer (mouse))	phosphorylation enrichment (Fyn)	phosphorylation enrichment (Hck)	phosphorylation enrichment (AncSZ)	phosphorylation enrichment (FGFR1)	phosphorylation enrichment (c-Abl (mouse))	phosphorylation enrichment (MERTK)	phosphorylation enrichment (Fes)
AAAAMYTFLPD [MYORG_Y36]	4.32	1.12	0.744	2.82	1.31	1.46	12	4.45	1	1.61	4.23	1.26	13.5	1	10.9	1.12
ADCRYYTFPQM [GAMT_Y223_A224T]	3.2	1.05	1.34	4.67	4.44	2.84	7.83	4.77	4.67	3.97	3.29	3.09	10.9	1.99	9.97	0.998
TLPAFYMGNFS [GLB1_Y552]	0.624	0.868	0.809	0.645	1.03	0.619	0.728	0.523	0.625	0.627	0.565	0.998	0.543	0.661	0.538	1.02
HRGHLYLAIEF [TEK_Y899_Y897H_YF]	0.571	0.645	0.722	1.78	6.33	1.67	1.79	2.63	1.38	1.49	1.5	3.67	1.41	9.68	1.64	8.12
PLDAEYFTLQI [TP53_Y327_G325A]	0.43	0.779	0.738	0.876	3.1	0.826	6.59	4.2	0.883	2.47	1.57	2.57	8.68	1.29	0.603	1.63
HNQDDYSFPSR [LDLR_Y845_G844D_YF]	0.678	0.723	0.8	1.3	0.536	2.14	0.75	0.633	0.573	0.737	0.586	5.49	0.539	0.545	0.553	0.77
RALLNYIASKY [GSTA3_Y74_I71L]	0.768	1.22	0.917	0.551	0.8	0.521	0.798	0.381	0.47	0.678	0.553	0.611	0.343	0.578	0.509	0.959
ETDPRYFDEEF [AKT1_Y437_T435P]	0.507	0.946	0.501	0.625	1.29	0.604	0.787	0.563	0.6	0.565	0.611	1.36	0.548	0.886	0.483	1.31
VLRQVYVDFEG [KMT2B_Y1707_R1705Q]	0.938	0.833	1	0.877	0.993	0.722	0.871	1.42	0.579	1.85	0.86	1.16	0.721	0.692	0.465	1.28
LDYNEYFRYLN [HPRT1_Y198_D201Y]	0.765	2.06	1.18	0.858	7.21	1.39	2.1	2.04	0.635	1.45	1.41	1.79	3.33	1.81	0.573	1.23
HNVAIYEGYAL [ACTC1_Y168_P166A]	2.31	0.716	0.838	15.8	2.17	22.6	0.969	17.1	19.7	15.4	12.8	2.26	0.878	3.44	6.65	2.5
VMSMNYRVGAL [BCHE_Y174_V170M]	0.461	0.719	0.775	0.578	0.715	0.592	0.573	0.484	0.438	0.462	0.447	0.767	0.485	0.686	0.416	0.878
FEEDSYVERSQ [RET_Y905_K907E_YF]	0.512	0.992	0.618	0.67	1.08	0.621	0.731	0.526	0.575	0.504	0.457	1.18	0.508	0.866	0.415	1.26
FDAHIYEGRVI [PRKCD_Y64]	0.713	0.913	0.654	0.544	0.639	0.609	0.574	2.08	2.12	1.68	4.25	0.929	0.546	0.636	0.47	0.91
RREGVYRNNID [PTEN_Y46_L42R]	0.436	0.621	0.451	0.324	0.778	0.517	0.516	0.8	0.469	0.664	0.461	0.55	0.392	0.783	0.752	0.925
FISVGYVDGTQ [HLA-B_Y51_D54G]	0.527	0.781	0.753	0.268	0.696	0.401	0.587	0.398	0.358	0.315	0.375	0.741	0.353	0.572	0.348	0.807
